In patent publication US20200102400A1:
Where two headings read alike, the source gives them in different places.

What was measured:
[1] = molecular target: C1q protein from human serum (human) (UniProt P02745); assay: FACS, spheroplasts, 10 nM C1q-PE, high-salt buffer (FIG. 3C)
[2] = molecular target: C1q protein from human serum (human) (UniProt P02745); assay: FACS, 10 nM C1q-PE; reference itself
[3] = molecular target: FcγRIIIa-V158-Streptavidin (tetrameric) (human) (UniProt P08637)
[4] = molecular target: FcγRIIIa-V158-Streptavidin (tetrameric) (human) (UniProt P08637); remark: listed apart in the source
[5] = molecular target: C1q protein from human serum (human) (UniProt P02745); assay: FACS, cell display, 10 nM C1q-PE
[6] = molecular target: FcγRIIIa-V158-GST (dimeric FcγRIIIaV158) (human) (UniProt P08637)
Sequence of FcγRIIIa-V158-GST (dimeric FcγRIIIaV158) (human) (P08637 17-208 F176V): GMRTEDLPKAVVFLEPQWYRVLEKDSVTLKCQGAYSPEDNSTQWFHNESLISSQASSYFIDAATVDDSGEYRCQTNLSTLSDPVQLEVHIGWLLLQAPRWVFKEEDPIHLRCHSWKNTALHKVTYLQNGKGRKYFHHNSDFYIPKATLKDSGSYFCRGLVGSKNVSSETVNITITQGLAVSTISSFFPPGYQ

[7] = molecular target: FcγRIIb-GST (dimeric FcγRIIb) (human) (UniProt P31994)
Sequence of FcγRIIb-GST (dimeric FcγRIIb) (human) (P31994 43-217): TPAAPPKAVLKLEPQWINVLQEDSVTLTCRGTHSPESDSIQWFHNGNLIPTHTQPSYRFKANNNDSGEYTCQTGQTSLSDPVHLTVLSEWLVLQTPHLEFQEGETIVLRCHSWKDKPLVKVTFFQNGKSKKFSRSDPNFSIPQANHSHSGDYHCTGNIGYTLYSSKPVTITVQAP

[8] = molecular target: C1q protein from human serum (human) (UniProt P02745); assay: FACS, spheroplasts, 10 nM C1q-PE
FcγRs = assay: cell-based or functional assay

Sequence of C1q protein from human serum (human) (P02745 23-245, chain 1 of 3): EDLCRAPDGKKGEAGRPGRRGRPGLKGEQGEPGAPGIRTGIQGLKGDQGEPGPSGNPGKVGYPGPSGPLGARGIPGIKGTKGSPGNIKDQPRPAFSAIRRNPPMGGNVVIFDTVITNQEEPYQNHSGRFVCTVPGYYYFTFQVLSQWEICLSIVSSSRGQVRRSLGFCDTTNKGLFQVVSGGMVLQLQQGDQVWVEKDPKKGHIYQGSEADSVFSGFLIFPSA
Sequence of C1q protein from human serum (human) (P02746 28-253, chain 2 of 3, further chain): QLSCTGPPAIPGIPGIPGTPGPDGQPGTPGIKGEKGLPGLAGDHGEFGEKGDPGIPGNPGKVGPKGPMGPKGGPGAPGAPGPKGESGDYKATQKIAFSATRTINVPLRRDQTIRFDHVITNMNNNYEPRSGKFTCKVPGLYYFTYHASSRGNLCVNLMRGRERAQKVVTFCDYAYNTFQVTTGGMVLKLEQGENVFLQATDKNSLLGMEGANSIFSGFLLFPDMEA
Sequence of C1q protein from human serum (human) (P02747 29-245, chain 3 of 3, further chain): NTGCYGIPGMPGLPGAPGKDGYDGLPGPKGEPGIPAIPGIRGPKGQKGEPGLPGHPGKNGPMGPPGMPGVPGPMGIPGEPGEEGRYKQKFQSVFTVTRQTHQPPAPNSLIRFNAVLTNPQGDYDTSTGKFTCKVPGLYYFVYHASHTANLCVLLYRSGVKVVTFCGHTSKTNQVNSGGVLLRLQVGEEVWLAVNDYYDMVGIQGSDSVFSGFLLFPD
Sequence of FcγRIIIa-V158-Streptavidin (tetrameric) (human) (P08637 17-208 F176V): as the sequence (P08637 17-208 F176V) above

Substance | MFI [1] | Increasing Fold [2] [fold] | MFI [3] | MFI [4] | MFI [5] | MFI [6] | MFI [7] | MFI [8] | ADCC EC50, Raji targets, PBMC (FcγRs) [nM]
wild-type aglycosylated IgG displayed on E. coli spheroplasts (antibody) | 14.9 | 1 | 36.6 | 6.44 | 23.5 | 3.8 | 4.5 | 54.7 | –
Rituximab (glycosylated wild-type IgG1) (antibody) | – | – | – | – | – | – | – | – | 2.11
